Data reported in publication PMC9321131.
Where two headings read alike, the source gives them in different places.

Key:
rPvSPL2 (GST-PvSPL2) [1] = molecular target: T1, rPvSPL2 (GST-PvSPL2) (Panicum virgatum, UniProt A0A8T0WHV5 1-470); experiment: EMSA
T1 sequence: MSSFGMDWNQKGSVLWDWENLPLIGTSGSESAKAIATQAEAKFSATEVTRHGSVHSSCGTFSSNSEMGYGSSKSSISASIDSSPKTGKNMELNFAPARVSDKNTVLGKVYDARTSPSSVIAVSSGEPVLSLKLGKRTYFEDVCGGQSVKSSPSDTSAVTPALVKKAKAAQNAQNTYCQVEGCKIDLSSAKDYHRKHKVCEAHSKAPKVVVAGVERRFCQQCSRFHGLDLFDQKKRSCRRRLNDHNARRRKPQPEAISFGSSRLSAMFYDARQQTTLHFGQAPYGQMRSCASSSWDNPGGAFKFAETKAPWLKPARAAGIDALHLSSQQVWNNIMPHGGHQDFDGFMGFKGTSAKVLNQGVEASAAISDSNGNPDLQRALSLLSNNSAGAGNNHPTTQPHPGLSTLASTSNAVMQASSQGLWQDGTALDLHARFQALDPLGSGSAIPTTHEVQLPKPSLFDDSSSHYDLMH

rPvSPL2 (GST-PvSPL2) [2] = molecular target: T1, rPvSPL2 (GST-PvSPL2); experiment: EMSA; remark: listed apart in the source

B1: PvLBO promoter probe 1 (site 1) (dsDNA)
DNA 1: CCCCCCAAACGTACTATTTACTAT
DNA 2: ATAGTAAATAGTACGTTTGGGGGG
Q: Does B1 bind (rPvSPL2 (GST-PvSPL2) [1])?
A: binds

B2: PvLBO promoter probe 2 (site 2) (dsDNA)
DNA 1: TACAATATTTGTACTGTCATAATA
DNA 2: TATTATGACAGTACAAATATTGTA
Q: Does B2 bind (rPvSPL2 (GST-PvSPL2) [2])?
A: binds
